Values quoted from earlier work, collected in publication PMC6994236.

Columns and labels:
[1] = target: PSD-95 PDZ1-3 (Rattus norvegicus) (UniProt P31016); assay: surface plasmon resonance
[2] = target: PSD-95 PDZ3 (Rattus norvegicus) (UniProt P31016); assay: surface plasmon resonance
PSD-95 PDZ3 (Rattus norvegicus), sequence (P31016 310-396): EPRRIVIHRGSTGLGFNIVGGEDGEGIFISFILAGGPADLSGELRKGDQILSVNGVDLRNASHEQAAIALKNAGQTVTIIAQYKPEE

PSD-95 PDZ1-3 (Rattus norvegicus), sequence (P31016 61-393): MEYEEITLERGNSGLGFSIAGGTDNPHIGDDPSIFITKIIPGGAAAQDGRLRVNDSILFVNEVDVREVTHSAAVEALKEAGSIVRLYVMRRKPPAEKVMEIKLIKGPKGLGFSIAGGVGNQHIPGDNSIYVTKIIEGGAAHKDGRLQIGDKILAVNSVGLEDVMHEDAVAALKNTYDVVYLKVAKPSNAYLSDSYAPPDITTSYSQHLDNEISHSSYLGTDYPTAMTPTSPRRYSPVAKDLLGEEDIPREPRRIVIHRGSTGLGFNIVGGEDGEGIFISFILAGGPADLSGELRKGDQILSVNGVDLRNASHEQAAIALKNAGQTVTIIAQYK

## synGAP lacking first 100 residues (from UniProt Q9QUH6)
[1]
  Kd: 0.005 µM
[2]
  Kd: 0.65 µM
